We go through one substance from patent US6515118.

Data set [1] deals with lamin B1 in co-incubated nuclei.
Data set [2] has as its system poly(ADP-ribose) polymerase (PARP) in co-incubated nuclei.
For data set [3], the system named is Ac-Asp-Glu-Ala-Asp-aldehyde (Ac-DEAD-CHO).
The target of data set [4] is T1, DFF-40, 40-kDa subunit of DNA Fragmentation Factor (DFF), purified from HeLa cell S-100 (UniProt O76075).
T1 sequence: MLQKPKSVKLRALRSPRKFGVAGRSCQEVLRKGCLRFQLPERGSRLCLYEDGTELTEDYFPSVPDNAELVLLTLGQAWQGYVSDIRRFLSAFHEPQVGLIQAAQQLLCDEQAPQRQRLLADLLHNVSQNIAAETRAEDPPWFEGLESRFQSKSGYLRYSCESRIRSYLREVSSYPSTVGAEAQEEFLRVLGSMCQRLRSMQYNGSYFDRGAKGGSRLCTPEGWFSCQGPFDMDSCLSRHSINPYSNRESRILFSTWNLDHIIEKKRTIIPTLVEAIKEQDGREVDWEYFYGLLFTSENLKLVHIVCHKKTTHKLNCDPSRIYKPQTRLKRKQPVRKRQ

In data set [5] the test system is recombinant DFF-45 fusion protein with a six-histidine tag at the NH2-terminus.
For data set [6], the system named is DFF-45, 45-kDa subunit of DNA Fragmentation Factor (DFF), purified from HeLa cell S-100.

For active recombinant caspase-3, the “time course of lamin B1 cleavage in nuclei (immunoblot)” value in data set [1] is “the rate of Lamin B1 cleavage by caspase-3 remained the same with or without DFF”. Besides, in data set [2], the “rate of PARP cleavage in nuclei (immunoblot)” value is listed as “The same conclusion was obtained when the rate of cleavage of PARP was measured”. In data set [3], the “cleavage of PARP and lamin B1 in co-incubated nuclei (immunoblot)” value is “Ac-DEAD SEQ ID NO:6-CHO still blocked the cleavage of both PARP and lamin B1 in the co-incubated nuclei”. Besides, the “cleavage of biotinylated DFF (SDS-PAGE, streptavidin-peroxidase chemiluminescence)” value in data set [4] is “the 40-kDa subunit remained intact”; in data set [6] it was “Incubation with caspase-3 resulted in the cleavage of the 45-kDa subunit into fragments of molecular masses of 30 kDa and 11 kDa”. Moreover, the “cleavage of the purified fusion protein (SDS-PAGE)” value in data set [5] is “Incubation of this fusion protein with caspase-3 resulted in its cleavage into three fragments of 30 kDa, 18 kDa and 11 kDa at the early time point”.
